Laboratory results published in article PMC11548879.

Key:
[1] = tested on: HpARI1 (Heligmosomoides polygyrus bakeri); test: EMSA; conditions: pH 7.5, 30 min, room temperature
[2] = molecular target: IL-33 (mouse) (mouse (endogenous in BALB/c mice and CMT-64 cells)) (UniProt Q8BVZ5)
Sequence of UniProt Q8BVZ5 (Q8BVZ5 whole entry): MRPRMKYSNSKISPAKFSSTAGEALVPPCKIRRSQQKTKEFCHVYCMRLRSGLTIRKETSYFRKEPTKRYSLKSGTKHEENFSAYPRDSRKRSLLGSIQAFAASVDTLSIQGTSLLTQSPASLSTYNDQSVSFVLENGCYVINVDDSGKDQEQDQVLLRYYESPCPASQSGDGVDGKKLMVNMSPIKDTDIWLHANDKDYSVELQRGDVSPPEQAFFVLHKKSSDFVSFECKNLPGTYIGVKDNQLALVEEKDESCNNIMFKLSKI

| Substance | IC50 of suppression of IL-5 production from bone marrow cells (IL-2, IL-7, freeze-thawed CMT-64 supernatants; IL-33-mediated ILC2 activation) [2] [ng/mL] | EC50 of amplification of IL-5 production from bone marrow cells (IL-2, IL-7, freeze-thawed CMT-64 supernatants; IL-33-mediated ILC2 activation) [2] [ng/mL] | other results |
| --- | --- | --- | --- |
| AACTTTGCCATTGTGGAAGG / CCTTCCACAATGCCAAAGTT [IR700 EMSA oligonucleotide probe] | – | – | binding signal [1]: 50 % DNA bound |
| HpARI2 (natural protein) | 1.9 | – | – |
| HpARI2:3 fusion protein (CCP1 domain of HpARI2 fused to the CCP2+3 domains of HpARI3) | – | 21.5 | – |
| HpARI3 (natural protein) | – | 1.2 | – |
| HpARI3:2 fusion protein (CCP1 domain of HpARI3 fused to the CCP2+3 domains of HpARI2) | 1.1 | – | – |
